Laboratory results from the RNAGym collection of RNA variant scans (doi:10.1073/pnas.2313332121).
Variants at the floor of the assay were thinned out.

B1: TPR 5TU (parent)
chain: GGAUCUUCUCGAUCUAACAAAAAAGACAAAUCUGCCACAAAGCUUGAGAGCAUCUUCGGAUGCAGAGGCGGCAGCCUUCGGUGGCGCGAUAGCGCCAACGUUCUCAACUAUGACACGCAAAACGCGUGCUCCGUUGAAUGGAGUUUAUCAUG

Variants of: B1
Assay: polymerase ribozyme fitness, log enrichment relative to wild type (log ratio); higher = more active; in vitro selection for triplet polymerase activity
Outline: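 Genotype fitness is the logarithm of its enrichment divided by wild-type enrichment, using inverse-variance-weighted averages of replicates. That logarithm is base 2. Enrichment was measured by Illumina sequencing of input and output libraries from one triplicate in vitro selection round, with frozen incubation at −7 °C, on PCR-built, transcribed mutant libraries of each subunit of a heterodimeric triplet polymerase ribozyme, retaining genotypes with ≥10 input reads and ≥1 read per output.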

Row | Variant | polymerase ribozyme fitness (log ratio)
1 | A60U C63A C79G C96U A122U C123U | ≤ -4.2
2 | A12U A23G C87U | -3.67
3 | A41G C95U A122G C149A | ≤ -4.2
4 | A16C G25C | -2.46
5 | U102G A121C | -2.85
6 | U33C G42A G81A A89G A119C C132U | ≤ -4.2
7 | A22U A28G G80C C99U C108A G140C | ≤ -4.2
8 | G11C A17U C79G G86U U101G C125U G152A | ≤ -4.2
9 | C54A U101A | -2.39
10 | C96U C105A C116G | -1.79
11 | A24G G25U U31C U55A C87G U102G | ≤ -4.2
12 | C103A G117U | -0.489
13 | A19U U31C G46A C96U C131U U139G | -2.16
14 | A66C G71A A73G G83C U151A | ≤ -4.2
15 | C95U U102C | -1.06
16 | A60G U90G U145A | ≤ -4.2
17 | A73G C87G U101G U139C | ≤ -4.2
18 | A52G U55A A91C A97U G112A A150U | ≤ -4.2
19 | C8A A12G | -3.98
20 | C5U C87U | 0.457
21 | A23U U55A C57U G68U A73G G80C G94U U104C | ≤ -4.2

Row | Variant | polymerase ribozyme fitness (log ratio)
22 | A3C A41G G84A G126C | -0.499
23 | A49U C85G | -2.96
24 | A37C G70C C87U U127C | ≤ -4.2
25 | A12C A60U C75G G88C A91G U109G | ≤ -4.2
26 | A22C C87U | -0.775
27 | U13A C57G C96A | -1.81
28 | C75G A89U C93G U104G A147C | ≤ -4.2
29 | U9C C38U C51U A52G G74C C85G G143C U145A | ≤ -4.2
30 | U45A G65A G86U | ≤ -4.2
31 | G50C A64U C93G U111G C116U G143U | ≤ -4.2
32 | C87G U134A | ≤ -4.2
33 | C93A A107U A110G C114U U127G | ≤ -4.2
34 | C76G C87A U111A | ≤ -4.2
35 | C51U A89C C96U A142U | -2.78
36 | G11A C27A A37C G59C G83A G86A G92A U102G G117U | ≤ -4.2
37 | U4A U33A G48C C57U C85U A115G C129G G141U | ≤ -4.2
38 | C32A U53G C85U C96G G136C | ≤ -4.2
39 | C85U C87U U144G | 0.338
40 | A12G A19C A20G A22C A28G A30G C57A G59A G84A U101G A115U G136U | ≤ -4.2
41 | A52G C96U U101A A142U A150G | ≤ -4.2
42 | A52C G58C A91U A121U | ≤ -4.2

Row | Variant | polymerase ribozyme fitness (log ratio)
43 | U56C C95A U102A | -1.87
44 | A20U A52U C76A C93A | ≤ -4.2
45 | G70C G86A C114U A115G G143U A150C | ≤ -4.2
46 | U56A A73C G94C | -3.51
47 | C63U G68A | ≤ -4.2
48 | C57U U130G C131U | -4.19
49 | U61C C96A | -3.31
50 | A21U A26C A39G A40C G50A G68C C72G U111C | ≤ -4.2
51 | C69A G71U C85G C103U G117C | -3.28
52 | A16G C43A U55A G80C G117U G133C | ≤ -4.2
53 | C54G A91G | -4.01
54 | G59A C93G | -3.78
55 | A21C G50C A60C A64U A66G G83A | ≤ -4.2
56 | A12G A20G A60G | -0.113
57 | U53A A66C A91U U104G G124A G141A | ≤ -4.2
58 | U6G A40U A49U A66C G94U A98U U134C G140A | ≤ -4.2
59 | G50A C87U A97U | -3.34
60 | A3C G50U | -1.07
61 | A26U G46U G48U G81U G83C C99G | ≤ -4.2
62 | G92A U127A A150U | -4.1
63 | A60C C76U G88U C116G U135G A142G U148G | ≤ -4.2

Row | Variant | polymerase ribozyme fitness (log ratio)
64 | U9C A17U A89G A122G | ≤ -4.2
65 | G50C A64U G100U U111C G136C | ≤ -4.2
66 | A30U C95G | -3.94
67 | C36U A39U | -2.71
68 | C35A A39C A91U A121U | ≤ -4.2
69 | G59A G94C | -0.903
70 | G50U A66C C76U U82G A89G A138U | ≤ -4.2
71 | U55A U127G | -2.72
72 | U78A C93A G94U | -4.16
73 | A39U C85U | -2.27
74 | C93A U101G | -3.29
75 | C14A A19G G68A C99A C123U | ≤ -4.2
76 | A47G A115C | -0.724
77 | C87A A89U C129G | ≤ -4.2
78 | G58C G84U G136U | -3.72
79 | A39G G58U U82C C108A U146A A150C | ≤ -4.2
80 | A49C G65C G88U C96A | -4.03
81 | C18U A142C | -0.999
82 | U61A U90C C96A A115U G152U | ≤ -4.2
83 | C75G C96U A120C | ≤ -4.2
